Molecular target: IL-1 receptor (human) (UniProt P14778)
Experiment: cell-based or functional assay

UniProt P14778, sequence (P14778 18-569): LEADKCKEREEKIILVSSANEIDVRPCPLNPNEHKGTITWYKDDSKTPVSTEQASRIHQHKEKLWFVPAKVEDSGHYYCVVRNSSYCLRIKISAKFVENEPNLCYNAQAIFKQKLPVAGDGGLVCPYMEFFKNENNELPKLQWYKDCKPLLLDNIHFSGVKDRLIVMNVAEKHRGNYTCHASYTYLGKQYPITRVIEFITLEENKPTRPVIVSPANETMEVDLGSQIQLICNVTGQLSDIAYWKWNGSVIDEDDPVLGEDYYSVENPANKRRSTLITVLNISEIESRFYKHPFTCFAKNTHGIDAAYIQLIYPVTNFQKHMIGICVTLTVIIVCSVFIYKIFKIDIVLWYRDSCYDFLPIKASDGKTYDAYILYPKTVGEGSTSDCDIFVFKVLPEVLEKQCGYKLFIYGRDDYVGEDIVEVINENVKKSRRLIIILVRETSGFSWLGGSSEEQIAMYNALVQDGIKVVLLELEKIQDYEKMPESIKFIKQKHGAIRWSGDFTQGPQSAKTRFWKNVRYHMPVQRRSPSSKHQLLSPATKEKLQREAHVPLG

IC50, inhibition of IL-1β induced production of IL-8 in human whole blood (100 pM rhIL-1β): 53.4 pM
Substance: Kineret® (anakinra) (from UniProt P18510 26-177) (ligand)

Source: patent publication US20120003226A1
